Laboratory results: patent US20250282881A1 (SHANGHAI EPIMAB BIOTHERAPEUTICS, published 2025)

Legend:
ΔCRD1-3 = target: T1, ΔCRD1-3 (human, UniProt P43489); experiment: ELISA, OX40 variant coated at 1 µg/ml, HRP-labeled secondary antibody, OD 450 nm
T1 construct: extracellular domain without CRD1, CRD2 and CRD3 (CRD4 left); also called truncated OX40 variant lacking CRD1, CRD2 and CRD3
T1 sequence (truncated extracellular domain, looked up): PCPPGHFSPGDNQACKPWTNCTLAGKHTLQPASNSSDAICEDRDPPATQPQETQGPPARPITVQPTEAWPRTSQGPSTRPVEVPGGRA
Text: The 4 cysteine rich domains (CRD) from OX40 extracellular domain were identified from UniProt (Identifier: P43489), and full length of extracellular OX40 (CRD1-4) and truncated OX40 variants ΔCRD1 (lacking CRD1), ΔCRD1-2 (lacking CRD1 and CRD2), ΔCRD1-3 (lacking CRD1, CRD2 and CRD3), mCRD1 (CRD1-4 with CRD1 domain therein replaced by murine CRD1), mCRD2 (CRD1-4 with CRD2 domain therein replaced by murine CRD2), mCRD3 (CRD1-4 with CRD3 domain therein replaced by murine CRD3), and mCRD4 (CRD1-4 with CRD4 domain therein replaced by murine CRD4) were synthesized by Biointron. The binding of HuEM1007-044-16, OX40-Tab1 (WO2015153513), OX40-Tab2 (WO2020151761) to OX40 or OX40 truncated proteins were analyzed using ELISA to identify the pertinent binding epitope. Briefly, OX40 variants were each coated at 1 μg/ml onto a 96 well plate (Corning, #3361) which was incubated overnight at 4° C., washed with PBS containing 0.05% Tween 20, blocked with blocking buffer (PBS containing 0.05% Tween 20 and 2% BSA) at 37° C. for 2 hours. On the coated and blocked plate, serially diluted antibodies were added and incubated at 37° C. for 1 hour, washed for 3 times, then added HRP-labeled secondary antibody. Tetramethylbenzidine (TMB) chromogenic solution was added for color development for 5 minutes then the reaction was quench with 1M HCl. Absorbance at 450 nm (OD450) was measured on a microplate reader.

[1] = target: T2, recombinant human OX40/His fusion protein (Novoprotein, CB17) (human, UniProt P43489 29-216); experiment: BLI (Octet RED96), antibody on AHC sensor, OX40/His as analyte, test group 4
T2 construct: Bought protein
T2 sequence: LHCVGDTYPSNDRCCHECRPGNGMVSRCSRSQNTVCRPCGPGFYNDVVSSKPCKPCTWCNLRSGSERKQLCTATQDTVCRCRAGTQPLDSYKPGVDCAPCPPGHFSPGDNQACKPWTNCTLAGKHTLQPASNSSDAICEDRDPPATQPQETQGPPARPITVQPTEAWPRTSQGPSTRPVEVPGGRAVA
Procedure: All 17 antibodies in Table 4 were expressed by transient transfection of HEK293 cell, purified by Protein A chromatography, and assayed for and ranked by dissociation rate constant (koff). Briefly, antibodies binding affinities and kinetics were characterized by Octet® RED96 biolayer interferometry (Pall FortéBio LLC). Antibodies were captured by Anti-hIgG Fc Capture (AHC) Biosensors (Pall) at a concentration of 100 nM for 120 seconds. After that, sensors were dipped into running buffer (1× pH 7.2 PBS, 0.05% Tween 20, 0.1% BSA) for 60 seconds to check the baseline, then dipped into recombinant human OX40/His fusion protein (Novoprotein, CB17) at assigned concentration for 200 seconds to measure binding, followed by dipped into running buffer for 600 seconds for dissociation. The assay was conducted in four test groups (as listed in Table 5) all containing the EM1007-044c chimeric antibody as the basis for normalization. The association and dissociation curves were fitted to a 1:1 Langmuir binding model using ForteBio Data Analysis software (Pall) to obtain the off-rate constants as shown in Table 5 below. The off-rate of each antibody was compared to that of the EM1007-mAb044c chimeric antibody in the same test group obtained in parallel to produce the corresponding off-rate ratio, serving as a normalized index. […]

[2] = target: T3, human OX40 on cells (CHO-K1-hOX40, CHO-OX40, Jurkat-OX40 reporter cells) (human, UniProt P43489 29-277); experiment: FACS on human OX40 transfected CHO cells
T3 construct: also called human OX40-transfected CHO cell; CD134
T3 sequence: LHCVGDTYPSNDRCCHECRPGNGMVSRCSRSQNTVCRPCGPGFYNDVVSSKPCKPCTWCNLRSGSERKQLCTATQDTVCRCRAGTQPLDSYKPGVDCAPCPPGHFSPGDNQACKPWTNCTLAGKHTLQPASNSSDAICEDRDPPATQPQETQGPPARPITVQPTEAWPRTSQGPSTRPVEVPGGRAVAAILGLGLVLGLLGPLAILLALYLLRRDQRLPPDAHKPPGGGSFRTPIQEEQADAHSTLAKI
Procedure: Cell binding affinity of PD-L1/OX40 antibodies were measured against CHO (ATCC, #CCL-61) overexpressing human PD-L1 (CHO-PD-L1) and CHO overexpressing OX40 (CHO-OX40), respectively. Briefly, 5×10⁵ cells were seeded into each well of a 96-well plate (Corning, #3799). Cells were centrifuged at 400 g for 5 minutes and supernatants were discarded. For each well, 100 μl of 3× serial dilution of antibodies starting from 100 nM were then added and mixed with the cells. After 60 minutes of 4° C. incubation, plates were washed several times to remove excess antibodies. […] After another round of centrifugation and washing, cells were resuspended in FACS buffer for reading on a CytoFLEX Flow Cytometer (Beckman Coulter). Median Fluorescence Intensity (MFI) readouts were plotted against antibody concentration and analyzed with GraphPad Prism 8.0.

- binding result (ΔCRD1-3): no binding (tested: about 25 nM)
- Normalized Index (off-rate ratio to EM1007-mAb044c) [1]: 126%
- koff [1]: 0.000352 s⁻¹
- EC50 [2]: 1.8 nM
B1: HuEM1007-044-16 (antibody, human IgG1, kappa, L234A L235A, V domains shown)
VH: EVQLQQSGAEVKKPGSSVKVSCKASGHAFSSSWMNWVKQRPGKGLEWIGRIYPGDEITNYNAKFKDKATLTADKSTSTAYMELSSLRSEDTAVYYCARDLLMPYWGQGTLVTVSS
VL: DIVMTQTPLSLPVTPGEPASISCRSSKSLLYSNAITYLYWYLQKPGQSPQLLIYQMSNLAPGVPDRFSSSGSGTDFTLKISRVEAEDVGVYYCAQNLELPFTFGQGTKLEIKR
notes: Humanized anti-OX40, human IgG1 LALA / kappa; parental antibody of FIT1014-20a; also called HuEM1007-44-16; parental OX40 antibody
